Measurements published in the supplement of paper PMC9170038.

Test system: MS2 coat protein
Assay: apparent KD of MS2 coat protein; designed switch direction (-1 OFF switch, 1 ON switch): 1; higher = weaker reporter binding
How it was run: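 SNAP-549-labelled MS2 coat protein was titrated, doubling from 0.7 or 1.5 nM to 3 µM, over designed RNA switches transcribed on Illumina chips by stalled E. coli RNA polymerase. Runs were done without input, with 200 uM small-molecule ligand, or with an oligonucleotide input. Apparent KD is the per-design median over clusters of curve-fitted normalised fluorescence.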

[1] = input ligand: microRNA oligo, concentration not stated
[2] = Eterna round: R95, input ligand: FMN 200 uM
[3] = Eterna round: R95, input ligand: microRNA oligo, concentration not stated
[4] = Eterna round: R95, input ligand: none

| Sequence | apparent KD of MS2 coat protein (input ligand: FMN 200 uM) | apparent KD of MS2 coat protein [1] | apparent KD of MS2 coat protein (input ligand: none) | apparent KD of MS2 coat protein [2] | apparent KD of MS2 coat protein [3] | apparent KD of MS2 coat protein [4] |
| --- | --- | --- | --- | --- | --- | --- |
| UGGUACAUGGGAGGAUAUCAUGUAGAGACAUGAGGAUCACCCAUGUAGAUGGCCGGUAACCGGGAUGAGAAGGCCCAUGUACCU [JL SSNG1 3.65] (Eterna round: R96, puzzle: Same State NG 2) | 161 nM | 56.3 nM | 151 nM |  |  |  |
| UGGUACAUGGGAGGAUAUGGGCAAGAGACAUGAGGAUCACCCAUGUAUUAAAAGCCGAAAGGCAUCUAGAAGGCCCAUGUACCU [JL SSNG1 3.86] (Eterna round: R96, puzzle: Same State NG 2) | 13.3 nM | 55.9 nM | 86.7 nM |  |  |  |
| UGGUACAUGGGAGGAUAUGGGCAUGAGACAUGAGGAUCACCCAUGUAUUAAAAGCCGAAAGGCAUCUAGAAGGCCCAUGUACCU [JL SSNG1 3.85] (Eterna round: R96, puzzle: Same State NG 2) | 17.1 nM | 137 nM | 214 nM |  |  |  |
| UGGUACAUGGGAGGAUAUGGGUUGAUAACAUGAGGAUCACCCAUGUUAAAUAUGCCGAGAGGCAACUAGAAGGCCCAUGUACCU [JL SSNG1 3.00] (Eterna round: R96, puzzle: Same State NG 2) | 28.5 nM | 380 nM | 644 nM |  |  |  |
| UGUACAUGAGGAUCACCCAUGUCUAGACAUGUUAAUAUAAUGUAGGAUAUAUAAAAUUUAAAUUAAUAGAAGGACAAUUUUUUU [JMF's solution 2] (Eterna round: R96, puzzle: Same State NG 3) | 113 nM | 155 nM | 212 nM |  |  |  |
| UGUCCAGCCUGAGCUGGACAAAAGCAUGUACAUGAGGAUCACCCAUGUUCAUGUACAAGCUUUUUGCUCGUCUUACA [salish99_208a_r3_080] (puzzle: Sensor for hsa-mir-208a) |  |  |  | 347 nM | 15.2 nM | 529 nM |
| UGUUGUAUUACAGGAUAUCUAGUUUUUUUAUUUAGAGAAGGGUAUUCACAUGAGGAUCACCCAUGUAUAUACGAGGAAGUUGUG [JMF's solution 33] (Eterna round: R96, puzzle: Same State NG 1) |  | 36.4 nM |  |  |  |  |
| UGUUGUAUUACAGGAUAUCUAUUAGUUGUAUUUAGAGAAGGGUAUUCACAUGAGGAUCACCCAUGUAUAUACGAGGAAGUUGUG [JMF's solution 92] (Eterna round: R96, puzzle: Same State NG 1) | 79.8 nM | 44.1 nM | 59.7 nM |  |  |  |
| UGUUGUAUUACAGGAUAUCUAUUAUUUGUAUUUAGAGAAGGGUAUUCACAUGAGGAUCACCCAUGUAUAUACGAGGAAGUUGUG [JMF's solution 20] (Eterna round: R96, puzzle: Same State NG 1) |  | 42.4 nM |  |  |  |  |
| UGUUGUAUUACAGGAUAUCUAUUAUUUUUACUUAGAGAAGGGUAUUCACAUGAGGAUCACCCAUGUAUAUACGAGGAAGUUGUG [JMF's solution 27] (Eterna round: R96, puzzle: Same State NG 1) |  | 38.2 nM |  |  |  |  |
| UGUUGUAUUACAGGAUAUCUAUUGUUUUUUUUUAGAGAAGGGUAUUCACAUGAGGAUCACCCAUGUAUAUACGAGGAAGUUGUG [JMF's solution 79] (Eterna round: R96, puzzle: Same State NG 1) |  | 43.2 nM |  |  |  |  |
| UGUUGUUAAUUAGGAUAUGGGCACAUGAGGAUCACCCAUGUAUUUUCGAUGCUAUGUGGAGACGUCUAGAAGGGAUGGCUAACA [SameState NG2 #88] (Eterna round: R96, puzzle: Same State NG 2) | 254 nM | 151 nM | 158 nM |  |  |  |
| UUAAAACAUGAGGAUCACCCAUGUAAUAAUAUGGGAGGAUAUCAGAAUGUAUGUAUGUAAUGAGAAGGCCUAAAUG [Mat - Same State 1 - Mod of Eli - D77] (puzzle: Same State 1) |  |  |  | 70.4 nM | 156 nM | 398 nM |
| UUAAAACAUGAGGAUCACCCAUGUCAACAAAGUCGAGGAUAUGGGCAAAUAAAAUAAGAACCAGAAGGCGAAUAAA [salish99_SS1_r3_002] (puzzle: Same State 1) |  |  |  | 39.5 nM | 245 nM | 412 nM |
| UUAAUAAUGUUAGGAUAUACAUGAGGAAUCCUCGUAGAAGGAACAUGACAUGAGGAUCACCCAUGUAGCGCUCCGAAGAGCGCA [Mat - Same State NG 1 - JL mod - D46] (Eterna round: R96, puzzle: Same State NG 1) | 254 nM | 115 nM | 161 nM |  |  |  |
| UUAAUGAUGUAAGGAUAUACAUGAGGAAUUCUCGUAGAAGGUACAUGACAUGAGGAUCACCCAUGUAUCGCUCCGUAGAGCGUA [JL SSNG1 1.12] (Eterna round: R96, puzzle: Same State NG 1) | 190 nM | 119 nM | 79.7 nM |  |  |  |
| UUAAUGAUGUAAGGAUAUACAUGAGGAUUUCUCGUAGAAGGUACAGGACAUGAGGAUCACCCAUGUGUCGCUCCGUAGAGCGUA [JL SSNG1 1.08] (Eterna round: R96, puzzle: Same State NG 1) | 349 nM | 414 nM | 525 nM |  |  |  |
| UUAAUUUGUUGAGGAUAUUAUGUCAAAAGAGAAGACAUGAGGAUCACCCAUGUGAGAAAAGGUUUUAAGAAGGCAACAUUCAUA [JR_SSNG2_Sub089] (Eterna round: R96, puzzle: Same State NG 2) | 39.5 nM | 77.7 nM | 115 nM |  |  |  |
| UUACUCAUGUAAGGAUAUGCAGCCGAAACGGCUGCAGAAGGUACUAAAAUACAUGAGGAUCACCCAUGUCUUUUUAAUUUAGAC [Mat - Same State NG 1 - JL mod - D83] (Eterna round: R96, puzzle: Same State NG 1) | 58.4 nM | 28.4 nM | 33.3 nM |  |  |  |
| UUACUCAUGUAAGGAUAUGCAGCCGUUUCGGCUGCAGAAGGUACUAUAAUACAUGAGGAUCACCCAUGUCUCUAUUAUUUGGUG [salish99_SSNG1_r04_923] (Eterna round: R96, puzzle: Same State NG 1) | 111 nM | 51.1 nM | 84.4 nM |  |  |  |
| UUACUCCCUACAUGAGGAUCACCCAUGUUUUACAAACCCAACGAGGAUAUGUUGAGCGGAUGUAAGCAGAAGGCGUAGGGUAGA [Eternabot solution 37] (Eterna round: R96, puzzle: Same State NG 3) | 143 nM | 16.7 nM | 40 nM |  |  |  |
| UUAGAAUUGCAAGGAUAUCUAAUGUAGAUAGUAAGAGAAGGUGCUUGAUAGUUACAUGAGGAUCACCCAUGUAUUUGGGUUUAU [JR_SSNG1_Sub057] (Eterna round: R96, puzzle: Same State NG 1) |  | 345 nM |  |  |  |  |
| UUAUAACAUGAGGAUCACCCAUGUCAACAAAGUCGAGGAUAUGGGCAAGAAGUGAGAGAACCAGAAGGCGAAUAUU [Mat - Same State 1 - Mod of UCT - D30] (puzzle: Same State 1) |  |  |  | 72 nM | 88.7 nM | 97.4 nM |
